# Experimental data from article PMC2756588.
# T1: Bzz1-2, P38822
# T1 sequence (P38822 568-633, looked up): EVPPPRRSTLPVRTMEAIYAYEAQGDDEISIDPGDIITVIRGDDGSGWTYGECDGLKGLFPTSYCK
# T2: Pin3, Q06449
# T2 sequence (Q06449 53-122, looked up): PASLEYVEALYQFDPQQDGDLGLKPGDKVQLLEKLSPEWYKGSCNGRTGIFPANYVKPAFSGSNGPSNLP
# T3: Sla1-3, P32790
# T3 sequence (P32790 344-424, looked up): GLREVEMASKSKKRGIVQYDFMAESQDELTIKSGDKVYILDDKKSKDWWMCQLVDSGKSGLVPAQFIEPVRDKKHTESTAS
# T4: Bud14, P27637
# T4 sequence (P27637 247-328, looked up): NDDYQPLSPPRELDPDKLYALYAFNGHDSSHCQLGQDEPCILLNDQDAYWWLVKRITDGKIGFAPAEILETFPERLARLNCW
# T5: Cyk3, Q07533
# T5 sequence (Q07533 1-83, looked up): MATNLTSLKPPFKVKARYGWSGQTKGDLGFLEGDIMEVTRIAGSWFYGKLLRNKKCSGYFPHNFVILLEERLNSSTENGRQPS
# T6: Lsb4, P32793
# T6 sequence (P32793 402-468, looked up): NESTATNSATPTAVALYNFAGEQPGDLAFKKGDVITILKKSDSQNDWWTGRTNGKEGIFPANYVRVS
# T7: Myo5, Q04439
# T7 sequence (Q04439 1072-1160, looked up): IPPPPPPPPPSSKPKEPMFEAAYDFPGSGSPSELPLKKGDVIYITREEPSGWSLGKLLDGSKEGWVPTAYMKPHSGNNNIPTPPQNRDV
# T8: Sla1-2, P32790
# T8 sequence (P32790 60-140, looked up): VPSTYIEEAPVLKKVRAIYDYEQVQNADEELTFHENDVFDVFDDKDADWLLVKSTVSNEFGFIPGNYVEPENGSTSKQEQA
# T9: Bbc1, P47068
# T9 sequence (P47068 1-78, looked up): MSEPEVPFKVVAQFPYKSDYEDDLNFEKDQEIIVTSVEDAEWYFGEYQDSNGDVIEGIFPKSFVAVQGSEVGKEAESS
# T10: Abp1, P15891
# T10 sequence (P15891 535-592, looked up): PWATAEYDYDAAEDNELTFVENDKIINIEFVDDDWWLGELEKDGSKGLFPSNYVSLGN
# T11: Hof1, Q05080
# T11 sequence (Q05080 590-669, looked up): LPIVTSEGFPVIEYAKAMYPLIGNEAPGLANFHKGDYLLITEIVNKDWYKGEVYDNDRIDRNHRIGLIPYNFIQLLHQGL
# T12: Fus1, P11710
# T12 sequence (P11710 432-512, looked up): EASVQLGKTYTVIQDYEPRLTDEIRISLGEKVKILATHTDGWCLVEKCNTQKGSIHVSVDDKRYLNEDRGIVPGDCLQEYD
# T13: Lsb3, P43603
# T13 sequence (P43603 385-451, looked up): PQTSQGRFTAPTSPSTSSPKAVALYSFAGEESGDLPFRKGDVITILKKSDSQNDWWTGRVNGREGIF
# T14: Pex13, P80667
# T14 sequence (P80667 295-386, looked up): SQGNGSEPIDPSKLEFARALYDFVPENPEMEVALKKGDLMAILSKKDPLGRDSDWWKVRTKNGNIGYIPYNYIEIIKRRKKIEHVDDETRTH
# T15: Boi1, P38041
# T15 sequence (P38041 1-86, looked up): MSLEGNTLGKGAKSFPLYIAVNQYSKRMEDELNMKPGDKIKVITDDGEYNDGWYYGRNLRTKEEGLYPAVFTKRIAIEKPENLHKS
# T16: Bzz1-1, P38822
# T16 sequence (P38822 478-572, looked up): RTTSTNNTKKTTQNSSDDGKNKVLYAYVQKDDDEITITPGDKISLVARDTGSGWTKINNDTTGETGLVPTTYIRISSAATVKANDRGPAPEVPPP
# T17: Cdc25, P04821
# T17 sequence (P04821 50-136, looked up): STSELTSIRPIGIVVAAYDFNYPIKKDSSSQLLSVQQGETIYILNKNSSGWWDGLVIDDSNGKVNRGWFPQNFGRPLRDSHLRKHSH
# T18: Lsb1, P53281
# T18 sequence (P53281 45-122, looked up): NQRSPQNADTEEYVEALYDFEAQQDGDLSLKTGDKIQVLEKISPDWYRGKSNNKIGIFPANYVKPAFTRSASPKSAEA
# T19: Boi2, P39969
# T19 sequence (P39969 32-116, looked up): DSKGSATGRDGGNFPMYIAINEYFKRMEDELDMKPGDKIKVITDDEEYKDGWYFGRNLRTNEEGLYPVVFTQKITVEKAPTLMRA
# T20: Nbp2, Q12163
# T20 sequence (Q12163 103-180, looked up): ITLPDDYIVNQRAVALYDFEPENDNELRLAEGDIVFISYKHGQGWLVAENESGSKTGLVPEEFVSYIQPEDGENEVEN
# T21: Hse1, P38753
# T21 sequence (P38753 208-285, looked up): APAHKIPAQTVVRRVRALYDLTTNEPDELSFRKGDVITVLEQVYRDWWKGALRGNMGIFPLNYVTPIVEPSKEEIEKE
# B1: unnamed (peptide)
# chain: VQQDSLPKLPFRSWG
# B2: unnamed (peptide)
# chain: LPMNIQPDLPPRKIM
# B3: unnamed (peptide)
# chain: APPPPPRRATPEKKP
# What was measured:
# Experiment in all cases: SPOT array
# [1] = target: T1, Bzz1-2, P38822; conditions: median of control spots 4538
# [2] = target: T2, Pin3, Q06449; conditions: median of control spots 2171
# [3] = target: T3, Sla1-3, P32790; conditions: median of control spots 5475
# [4] = target: GST; conditions: median of control spots 978
# [5] = target: T4, Bud14, P27637; conditions: median of control spots 956
# [6] = target: T5, Cyk3, Q07533; conditions: median of control spots 1451
# [7] = target: T6, Lsb4, P32793; conditions: median of control spots 397
# [8] = target: T7, Myo5, Q04439; conditions: median of control spots 471
# [9] = target: T8, Sla1-2, P32790; conditions: median of control spots 712
# [10] = target: Bem1-1, P29366; conditions: median of control spots 4282
# [11] = target: Myo3, P36006; conditions: median of control spots 468
# [12] = target: T9, Bbc1, P47068; conditions: median of control spots 796
# [13] = target: Sho1, P40073; conditions: median of control spots 1148
# [14] = target: T10, Abp1, P15891; conditions: median of control spots 935
# [15] = target: T11, Hof1, Q05080; conditions: median of control spots 4086
# [16] = target: Bem1-2, P29366; conditions: median of control spots 4347
# [17] = target: T12, Fus1, P11710; conditions: median of control spots 1200
# [18] = target: T13, Lsb3, P43603; conditions: median of control spots 406
# [19] = target: T14, Pex13, P80667; conditions: median of control spots 1341
# [20] = target: T15, Boi1, P38041; conditions: median of control spots 1162
# [21] = target: Rvs167, P39743; conditions: median of control spots 2707
# [22] = target: T16, Bzz1-1, P38822; conditions: median of control spots 4446
# [23] = target: T17, Cdc25, P04821; conditions: median of control spots 969
# [24] = target: T18, Lsb1, P53281; conditions: median of control spots 388
# [25] = target: T19, Boi2, P39969; conditions: median of control spots 1161
# [26] = target: T20, Nbp2, Q12163; conditions: median of control spots 357
# [27] = target: T21, Hse1, P38753; conditions: median of control spots 1727
# Sequence of Sho1, P40073 (P40073 287-367): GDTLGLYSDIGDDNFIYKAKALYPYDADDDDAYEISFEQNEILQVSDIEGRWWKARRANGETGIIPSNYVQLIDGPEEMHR
# Sequence of Rvs167, P39743 (P39743 419-482): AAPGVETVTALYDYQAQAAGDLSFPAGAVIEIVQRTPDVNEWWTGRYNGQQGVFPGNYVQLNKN
# Sequence of Bem1-2, P29366 (P29366 139-227): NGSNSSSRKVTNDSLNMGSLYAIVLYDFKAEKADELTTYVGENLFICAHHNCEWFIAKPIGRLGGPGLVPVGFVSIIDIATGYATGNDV
# Sequence of Bem1-1, P29366 (P29366 55-141): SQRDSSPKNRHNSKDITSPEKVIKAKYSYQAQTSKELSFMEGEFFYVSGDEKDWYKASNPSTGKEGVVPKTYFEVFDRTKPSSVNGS
Binder,SPOT intensity [1],SPOT intensity [2],SPOT intensity [3],SPOT intensity [4],SPOT intensity [5],SPOT intensity [6],SPOT intensity [7],SPOT intensity [8],SPOT intensity [9],SPOT intensity [10],SPOT intensity [11],SPOT intensity [12],SPOT intensity [13],SPOT intensity [14],SPOT intensity [15],SPOT intensity [16],SPOT intensity [17],SPOT intensity [18],SPOT intensity [19],SPOT intensity [20],further results
B1,0,7,0,0,0,0,1310,0,0,0,0,5,66,0,1570,0,1,646,490,0,SPOT intensity [21]: 944; SPOT intensity [22]: 0; SPOT intensity [23]: 0; SPOT intensity [24]: 399; SPOT intensity [25]: 2; SPOT intensity [26]: 0; SPOT intensity [27]: 0
B2,0,175,0,0,0,0,1360,35,6,0,102,2,29,141,0,0,0,941,35,0,SPOT intensity [21]: 2810; SPOT intensity [22]: 0; SPOT intensity [23]: 0; SPOT intensity [24]: 285; SPOT intensity [25]: 0; SPOT intensity [26]: 6; SPOT intensity [27]: 3
B3,0,8,0,1,0,1,424,14,0,0,92,14,21,77,0,3,0,432,68,0,SPOT intensity [21]: 525; SPOT intensity [22]: 1; SPOT intensity [23]: 3; SPOT intensity [24]: 30; SPOT intensity [25]: 1; SPOT intensity [26]: 0; SPOT intensity [27]: 0
